Test results as given in the supplement of paper PMC10567573.

B1: FUT8 (parent)
chain: YAHQPRTADEIPMEPGDIIGVAGN

Variants of: B1
Test: protein stability index of a GFP-peptide fusion (GPS, HEK-293T) (PSI 1-6); higher = more stable
Conditions: c terminus: a fixed tail appended
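Further: lentivirally expressed fusions sorted by FACS into six bins by GFP to DsRed ratio, PSI derived from sequencing read proportions per bin multiplied by bin number.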

Point of comparison: YAHQPRTSDEIPMEPGDIIGVAGN [A8S], protein stability index 3.87. Against it:
- YAHQPRTADEIPMQPGDIIGVAGN [E14Q] — lower, 3.47
- YAHQPRTADEIPMAPGDIIGVAGN [E14A] — lower, 3.41
- YAHQPRTADEIPMTPGDIIGVAGN [E14T] — higher, 3.9
- YAHQPRTADEIPMVPGDIIGVAGN [E14V] — lower, 3.58
- YAHQPRTADEIPMRPGDIIGVAGN [E14R] — lower, 3.48
- YAHQPRTADEIPMWPGDIIGVAGN [E14W] — lower, 2.1
- YAHQPRTADEIPMLPGDIIGVAGN [E14L] — lower, 2.88
- YAHQPRTADEIPMPPGDIIGVAGN [E14P] — lower, 3.12
- YAHQPRTADEIPMHPGDIIGVAGN [E14H] — lower, 3.5
- YAHQPRTADEIPMYPGDIIGVAGN [E14Y] — lower, 2.27
- YAHQPRTADEIPMIPGDIIGVAGN [E14I] — lower, 3.23
- YAHQPRTADEIPMMPGDIIGVAGN [E14M] — lower, 3.25
- YAHQPRTADEIPMDPGDIIGVAGN [E14D] — lower, 3.75
- YAHQPRTADEIPMKPGDIIGVAGN [E14K] — lower, 3.29
- YAHQPRTADEIPMFPGDIIGVAGN [E14F] — lower, 2.46
- YAHQPRTADEIPMSPGDIIGVAGN [E14S] — lower, 3.29
- YAHQPRTADEIPMCPGDIIGVAGN [E14C] — lower, 3.32
- YAHQPRTADEIPMGPGDIIGVAGN [E14G] — lower, 3.35
- YAHQPRTADEIPMNPGDIIGVAGN [E14N] — lower, 3.25
- YAHQPRTAWEIPMEPGDIIGVAGN [D9W] — lower, 2.16
- YAHQPRTAYEIPMEPGDIIGVAGN [D9Y] — lower, 2.62
- YAHQPRTATEIPMEPGDIIGVAGN [D9T] — lower, 3.57
- YAHQPRTAMEIPMEPGDIIGVAGN [D9M] — lower, 3.74
- YAHQPRTALEIPMEPGDIIGVAGN [D9L] — lower, 3.1
- YAHQPRTAVEIPMEPGDIIGVAGN [D9V] — lower, 2.52
- YAHQPRTAAEIPMEPGDIIGVAGN [D9A] — lower, 3.53
- YAHQPRTAQEIPMEPGDIIGVAGN [D9Q] — lower, 3.74
- YAHQPRTAIEIPMEPGDIIGVAGN [D9I] — lower, 2.6
- YAHQPRTAPEIPMEPGDIIGVAGN [D9P] — lower, 3.33
- YAHQPRTANEIPMEPGDIIGVAGN [D9N] — lower, 3.65
- YAHQPRTACEIPMEPGDIIGVAGN [D9C] — lower, 3.22
- YAHQPRTAREIPMEPGDIIGVAGN [D9R] — lower, 3.41
- YAHQPRTAKEIPMEPGDIIGVAGN [D9K] — lower, 3.51
- YAHQPRTAFEIPMEPGDIIGVAGN [D9F] — lower, 2.68
- YAHQPRTAGEIPMEPGDIIGVAGN [D9G] — lower, 3.52
- YAHQPRTASEIPMEPGDIIGVAGN [D9S] — lower, 3.67
- YAHQPRTAHEIPMEPGDIIGVAGN [D9H] — lower, 3.67
- YAHQPRTAEEIPMEPGDIIGVAGN [D9E] — higher, 4.09
- YAHQPRTVDEIPMEPGDIIGVAGN [A8V] — lower, 3.77
- YAHQPRTPDEIPMEPGDIIGVAGN [A8P] — higher, 4.32
- YAHQPRTQDEIPMEPGDIIGVAGN [A8Q] — higher, 4.25
- YAHQPRTHDEIPMEPGDIIGVAGN [A8H] — the same, 3.87
- YAHQPRTYDEIPMEPGDIIGVAGN [A8Y] — lower, 3.15
- YAHQPRTMDEIPMEPGDIIGVAGN [A8M] — lower, 3.74
- YAHQPRTNDEIPMEPGDIIGVAGN [A8N] — higher, 4.22
- YAHQPRTDDEIPMEPGDIIGVAGN [A8D] — higher, 4.49
- YAHQPRTWDEIPMEPGDIIGVAGN [A8W] — lower, 2.78
- YAHQPRTTDEIPMEPGDIIGVAGN [A8T] — higher, 4.24
- YAHQPRTLDEIPMEPGDIIGVAGN [A8L] — lower, 3.43
- YAHQPRTCDEIPMEPGDIIGVAGN [A8C] — lower, 3.44
- YAHQPRTIDEIPMEPGDIIGVAGN [A8I] — higher, 4.02
- YAHQPRTEDEIPMEPGDIIGVAGN [A8E] — higher, 4.4
- YAHQPRTKDEIPMEPGDIIGVAGN [A8K] — higher, 3.88
- YAHQPRTFDEIPMEPGDIIGVAGN [A8F] — lower, 3.48
- YAHQPRTGDEIPMEPGDIIGVAGN [A8G] — higher, 4.19
- YAHQPRTRDEIPMEPGDIIGVAGN [A8R] — higher, 3.89
- YAHQPRVADEIPMEPGDIIGVAGN [T7V] — higher, 3.89
- YAHQPRPADEIPMEPGDIIGVAGN [T7P] — higher, 3.97
- YAHQPRQADEIPMEPGDIIGVAGN [T7Q] — higher, 4.25
- YAHQPRIADEIPMEPGDIIGVAGN [T7I] — lower, 3.66
- YAHQPRAADEIPMEPGDIIGVAGN [T7A] — higher, 4.18
- YAHQPRHADEIPMEPGDIIGVAGN [T7H] — lower, 3.66
- YAHQPRGADEIPMEPGDIIGVAGN [T7G] — higher, 4.18
- YAHQPRMADEIPMEPGDIIGVAGN [T7M] — lower, 3.68
- YAHQPRSADEIPMEPGDIIGVAGN [T7S] — higher, 4.12
- YAHQPRDADEIPMEPGDIIGVAGN [T7D] — higher, 4.62
- YAHQPRYADEIPMEPGDIIGVAGN [T7Y] — lower, 3.58
- YAHQPRFADEIPMEPGDIIGVAGN [T7F] — lower, 2.37
- YAHQPRLADEIPMEPGDIIGVAGN [T7L] — lower, 3.71
- YAHQPRRADEIPMEPGDIIGVAGN [T7R] — higher, 3.9
- YAHQPRKADEIPMEPGDIIGVAGN [T7K] — lower, 3.56
- YAHQPRNADEIPMEPGDIIGVAGN [T7N] — higher, 4.51
- YAHQPREADEIPMEPGDIIGVAGN [T7E] — higher, 4.84
- YAHQPRWADEIPMEPGDIIGVAGN [T7W] — lower, 2.46
- YAHQPRCADEIPMEPGDIIGVAGN [T7C] — lower, 2.73
- YAHQPRTADCIPMEPGDIIGVAGN [E10C] — lower, 3.25
- YAHQPRTADIIPMEPGDIIGVAGN [E10I] — lower, 2.99
- YAHQPRTADWIPMEPGDIIGVAGN [E10W] — lower, 2.23
- YAHQPRTADPIPMEPGDIIGVAGN [E10P] — lower, 3.66
- YAHQPRTADFIPMEPGDIIGVAGN [E10F] — lower, 3.14
- YAHQPRTADYIPMEPGDIIGVAGN [E10Y] — lower, 3.06
- YAHQPRTADAIPMEPGDIIGVAGN [E10A] — lower, 3.67
- YAHQPRTADGIPMEPGDIIGVAGN [E10G] — lower, 2.53
- YAHQPRTADHIPMEPGDIIGVAGN [E10H] — lower, 3.33
- YAHQPRTADSIPMEPGDIIGVAGN [E10S] — lower, 3.74
- YAHQPRTADMIPMEPGDIIGVAGN [E10M] — lower, 3.44
- YAHQPRTADNIPMEPGDIIGVAGN [E10N] — lower, 3.73
- YAHQPRTADRIPMEPGDIIGVAGN [E10R] — lower, 2.96
- YAHQPRTADQIPMEPGDIIGVAGN [E10Q] — lower, 3.08
- YAHQPRTADDIPMEPGDIIGVAGN [E10D] — higher, 4.18
- YAHQPRTADTIPMEPGDIIGVAGN [E10T] — lower, 3.66
- YAHQPRTADVIPMEPGDIIGVAGN [E10V] — lower, 3.37
- YAHQPRTADLIPMEPGDIIGVAGN [E10L] — lower, 3.56
